Reference: publication PMC5652298 (Nature structural & molecular biology, 2017)

What was measured:
[1] = biological target: wild-type Shaker K+ channel with N-type inactivation removed (UniProt P08510); assay: […]
[2] = biological target: 3/4V478W mutant Shaker concatemer channel; assay: […]

wild-type AgTx2 (from UniProt P46111 1-38) (peptide)
Kd [1]: 2.5 nM

GVPINVSCTGSPQCIKPCKDAGMRFGKCMNRKCHCTPK [wild-type AgTx2]
Kd [2]: 9.2 nM
